Assay [1] concerns the target bovine pancreatic chymotrypsin (bovine). Put plainly: apparent Ki, Morrison fit, 25 nM chymotrypsin.
The target is the same in assay [2]. Put plainly: apparent Ki, intercept of IC50 vs chymotrypsin concentration.

B1: ixochymostatin (natural protein)
chain: ANTGIEWPPKPQKCAEGETWKECVGSSCAELTCEHPEPSLGCTYDCNYGCYCAPDFFRNANKECVKKDKCP
On to B1, for which the figures for the Ki in assay [1] and in assay [2] were 0.99 nM and 16.5 nM, respectively.

The record behind these values is doi:10.1101/2024.10.04.616518 (2024).
